Experimental data published in paper PMC8769549, “The intrinsically disordered SARS-CoV-2 nucleoprotein in dynamic complex with its viral partner nsp3a”.

Target: N234 (nucleoprotein domains N2-N3-N4) (SARS-CoV-2 (NC_045512.2), UniProt P0DTC9 47-364)
Experiment: NMR; 1D NMR; 100 uM RNA, 50 uM N234
Conditions: protein: recombinant; tags: N-terminal His6-TEV, cleaved; chain copies: 2; single strand

B1: polyA hexameric RNA (ssRNA)
RNA: AAAAAA
  binding result: binds
